Reference: the RNAGym collection of RNA variant scans (doi:10.1093/nar/gkz1192)

B1: CPEB3 Ribozyme (parent)
chain: UAACAGGGGGCCACAGCAGAAGCGUUCACGUCGCAGCCCCUGUCAGAUUCUGGUGAAUCUGCGAAUUCUGCUGUAUAUCUC

Variants of: B1
Assay: self-cleavage, relative activity (ratio to wild type); higher = more cleavage; in vitro, sequencing
Procedure, shortened: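 Relative activity compares each variant's cleaved/total read fraction with that of the unmutated ribozyme. To get these fractions, barcoded CPEB3 ribozyme libraries from rounds of error-prone PCR were transcribed with T7 RNA polymerase for 5 hours at 37°C and then given 15 min of DNase I treatment before EDTA was added. The RNAs were reverse transcribed with template switching and sequenced on Illumina, and DNA sequencing linked barcodes to variants. A minimum of 5 reads applied, and three batches were averaged.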

Variant | self-cleavage
U25G A65G | 0.26
U25G A65U | 0.07
U26A C37U | 0.5
U26A C37G | 0.62
U26C G30U | 0.16
U26C G30A | 0.27
U26A U43A | 0.39
U26A U43G | 0.33
U26A U43C | 0.29
U26C A57G | 0.36
U26C A57U | 0.31
U26C A57C | 0.28
U26C C37G | 0.71
U26C C37U | 0.32
U26C C37A | 0.13
U26A C50U | 0.47
U26A C50A | 0.76
U26C U49C | 0.34
U26C U49A | 0.3
U25G U72A | 0.21
U25G U72C | 0.26
U26A C79A | 1.07
U26A C79U | 1.05
U26A G73A | 0.96

Variant | self-cleavage
U26C U51C | 0.44
U26C U51A | 0.43
U26C U51G | 0.46
U26A A65U | 0.35
U26A A65G | 0.38
U25G A57G | 0.16
U25G A35U | 0.39
U25G A35G | 0.9
U26C C68U | 0.5
U26C C68A | 0.28
U26C A64U | 0.26
U26C A64C | 0.31
U26C A64G | 0.36
U26A U48C | 0.47
U26A U48A | 0.35
U26A U48G | 0.37
U26A G70C | 0.2
U26A G70A | 0.4
U26C G42A | 0.31
U26C G42C | 0.15
U26C G42U | 0.25
U26C U69A | 0.26
U26C U69C | 0.27
U26C C32G | 0.11

Variant | self-cleavage
U26C C32A | 0.22
U26C C32U | 0.16
U26C C40A | 0.26
U26C C40U | 0.34
U26C C71A | 0.1
U26C C71U | 0.24
U25G A28U | 0.31
U25G A28G | 0.37
U26A C68U | 0.79
U26A C68A | 0.31
U25G U41G | 0.43
U25G U41C | 0.4
U25G U41A | 0.19
U25G C39U | 0.3
U25G U74G | 0.37
U25G U74C | 0.52
U25C U76A | 0.33
U25C U76C | 0.3
U25C U76G | 0.45
U26C A56G | 0.38
U26C A56C | 0.31
U26C A56U | 0.28
U25G A77U | 0.25
U25G C37U | 0.09

Variant | self-cleavage
U25G C32A | 0.26
U25C U72A | 0.22
U25C U72G | 0.26
U25C U72C | 0.28
U25G U66C | 0.23
U26A C32G | 0.13
U26A C32A | 0.16
U25G A56G | 0.4
U26A U54G | 0.53
U26A U54C | 0.84
U26A U54A | 0.82
U25G U58C | 0.2
U25G U58A | 0.14
U26A A75U | 0.9
U26A A75G | 0.69
U26C G73U | 1
U26C G73A | 0.99
U25G U67G | 0.19
U25G U67A | 0.22
U26A A77U | 1.03
U26A A77G | 0.91
U26C G70U | 0.26
U26C G70A | 0.59
U26C G70C | 0.12

Variant | self-cleavage
U25C U78C | 0.24
U25C U78A | 0.25
U25C U78G | 0.22
U26C C59A | 0.17
U25G C71G | 0.16
U26A C29G | 0.3
U26A U66G | 0.42
U26A U66A | 0.38
U26A U66C | 0.34
U26C C39A | 0.33
U26C C39U | 0.61
U26A U78C | 0.82
U26A U78G | 0.5
U26A U78A | 0.67
U25G U31C | 0.19
U25G U31A | 0.23
U26C A35G | 1.07
U26C A35U | 0.24
U26C A35C | 0.32
U26A G63U | 0.87
U26A G63A | 0.74
U26A U49G | 0.41
U26A U49A | 0.49
U26A U49C | 0.3

Variant | self-cleavage
U26C G46A | 0.17
U26C U31A | 0.27
U26C U31G | 0.32
U26C U31C | 0.35
U26C G61C | 0.25
U26C G61U | 0.35
U26C C29A | 0.18
U26C C29U | 0.29
U26C C29G | 0.35
U26A G36U | 0.39
U26A U41C | 0.67
U26A U41A | 0.25
U26A U41G | 0.33
U26A C39U | 0.56
U25G U80C | 0.37
U26A G55U | 0.77
U26C A75U | 0.56
U26C A75C | 0.38
U26C A75G | 0.38
U26C G63U | 0.61
U26C G63C | 0.41
U26C G63A | 0.35
U26A U51C | 0.84
U26A U51A | 0.81

Variant | self-cleavage
U26A U51G | 0.8
U25G A75G | 0.29
U25C U54C | 0.27
U25C U54G | 0.31
U26A C44U | 0.46
U26A C44G | 0.94
U26A A28U | 0.61
U26A A28G | 0.38
U25C U60G | 0.13
U25C U60C | 0.23
U25C U60A | 0.24
U26A A35U | 0.38
U26A A35C | 0.65
U26A A35G | 1.29
U26C G55C | 0.33
U26C G55A | 0.43
U26A | 0.89
U26C | 0.5
U26A G33A | 0.17
U26A G33U | 0.1
U26C C81A | 0.63
U26C C81U | 0.5
U26C U67G | 0.21
U26C U67A | 0.24

Variant | self-cleavage
U26C U67C | 0.22
U26C A45G | 0.32
U26C A45C | 0.36
U26C A45U | 0.26
U26A C34G | 0.41
U26A C34U | 0.29
U26C A65U | 0.3
U26C A65G | 0.3
U26C A65C | 0.28
U26C U66G | 0.21
U26C U66A | 0.23
U26C U66C | 0.26
U26A C71U | 0.24
U26A C71A | 0.2
U26A C81G | 1.1
U26A A56C | 0.49
U26A A56U | 0.4
U26A A56G | 0.68
U25G C59U | 0.21
U26C C44A | 0.09
U26C C44U | 0.26
U26C U60A | 0.39
U26C U60C | 0.27
U26C U60G | 0.3

Variant | self-cleavage
U25G G73A | 0.51
U25C U74A | 0.42
U25C U74C | 0.35
U26C A28G | 0.31
U26C A28C | 0.29
U26C A28U | 0.29
U26A A57G | 0.78
U26A A57U | 0.62
U25G A47U | 0.32
U25G U26C | 0.33
U25G U43C | 0.34
U25G U43A | 0.58
U26A A47U | 0.58
U26A A47G | 0.84
U26C G36C | 0.15
U26C G36A | 0.13
U26C G36U | 0.25
U26C A47C | 0.08
U26C A47U | 0.36
U26C A47G | 0.48
U26A U31C | 0.69
U26A U31A | 0.34
U26C C38A | 0.19
U26C C38U | 0.4

Variant | self-cleavage
U26C C38G | 0.09
U26A U58C | 0.39
U26A U58G | 0.17
U26A U58A | 0.23
U26A G52A | 1.06
U26A G52U | 1.08
U26A G52C | 1
U26C C27U | 0.27
U25G U49C | 0.45
U25G U49A | 0.26
U26A U60C | 0.34
U26A U60A | 0.52
U26C G53A | 0.51
U26A G30C | 0.24
U26A G30U | 0.19
U25C U67A | 0.25
U25C U67G | 0.11
U25C U67C | 0.2
U25C U69C | 0.22
U25C U69A | 0.22
U25C U69G | 0.21
U26A C27G | 0.12
U26A C27A | 0.31
U25G A64U | 0.23

Variant | self-cleavage
U25G A64G | 0.24
U26C C79G | 0.59
U26C C79U | 0.55
U26C C79A | 0.61
U25G U60C | 0.24
U25G U60A | 0.19
U26A A64U | 0.27
U26A A64G | 0.61
U26A A64C | 0.5
U26C U48G | 0.47
U26C U48C | 0.33
U26C U48A | 0.23
U26C G33C | 0.13
U26C G33A | 0.24
U26C G33U | 0.24
U25G U76C | 0.52
U25G C34U | 0.15
U26A G53A | 1
U26A G53U | 1.04
U26A A45U | 0.42
U26A A45G | 0.69
U26A A45C | 0.21
U25C U80A | 0.28
U25C U80C | 0.35

Variant | self-cleavage
U25G G70C | 0.33
U25G | 0.31
U26A U80C | 1.02
U26A U80A | 0.96
U26A U80G | 1.06
U26C C50U | 0.27
U26C C50G | 0.22
U26C C50A | 0.44
U25G C27U | 0.39
U26C A77U | 0.53
U26C A77G | 0.46
U26C A77C | 0.45
U26C U54G | 0.27
U26C U54C | 0.44
U26C U54A | 0.5
U26A C38U | 0.51
U26A C38A | 0.27
U26C G52C | 0.27
U26C G52A | 0.76
U26A C62A | 0.25
U26A C62U | 0.21
U26A C62G | 0.2
U26C U58A | 0.15
U26C U58C | 0.29

Variant | self-cleavage
U26C U58G | 0.28
U25G U48C | 0.36
U26A G61C | 0.27
U26A G61A | 0.73
U26C U41G | 0.31
U26C U41A | 0.28
U26C U41C | 0.45
U25C U58A | 0.29
U25C U58G | 0.33
U25C U58C | 0.26
U26A U74A | 1.31
U26A U74C | 1.16
U26C C62U | 0.16
U26C C62G | 0.17
U26C C62A | 0.38
U25G U69C | 0.24
U25G U69A | 0.15
U26A U76A | 1.02
U26A U76C | 0.74
U26A G42A | 0.29
U25G U51C | 0.4
U25G U51A | 0.3
U26A U67A | 0.38
U26A U67C | 0.29

Variant | self-cleavage
U25G G52A | 0.15
U25G A45G | 0.29
U25G U54C | 0.43
U25G U54A | 0.49
U25G U78A | 0.12
U25G U78C | 0.15
U26C U43G | 0.7
U26C U43C | 0.77
U26C U43A | 0.26
U25G C50U | 0.14
U26A C40A | 0.25
U26A C40G | 0.17
U26A C40U | 0.59
U25C U66G | 0.69
U25C U66C | 0.27
U25C U66A | 0.35
U26A U72G | 0.83
U26A U72C | 1.13
U26A U72A | 0.75
U26A U69C | 0.4
U26A U69A | 0.46
U26A U69G | 0.48
